The text below walks through data of PMC8899823 (Science translational medicine, 2022).

In one experiment the target is SARS-CoV-2 RBD (SARS-CoV-2, UniProt P0DTC2). The experiment in a line: ELISA. (An ELISA detects its analyte on a solid surface through an enzyme-linked reagent.)
Experiment [1] addresses bat RsSHC014 spike protein (Bat SARS-like coronavirus RsSHC014, UniProt U5WLK5). The experiment in a line: ELISA.

B1: DH1047 IgG (antibody, V domains shown)
VH: QVQLVQSGAEVKKPGASVQVSCQASANTFTNHYIHWVRQAPGQGLEWMGIIYPTGGNTIYAQGFQGRVTMTRDTSLNTIYLELSSLRSEDTAVYYCARDVRVDDSWSGYDLLSGGTYFDYWGQGTLVTVSS
VL: not shown
Take B1: the binding result (in the experiment with SARS-CoV-2 RBD; in experiment [1]) was “binds” throughout.
